Literature values as cited in PMC9326902.

Biological target: Hemoglobin (Homo sapiens) (UniProt P69905)
Chain of UniProt P69905 (P69905 2-142, chain 1 of 2): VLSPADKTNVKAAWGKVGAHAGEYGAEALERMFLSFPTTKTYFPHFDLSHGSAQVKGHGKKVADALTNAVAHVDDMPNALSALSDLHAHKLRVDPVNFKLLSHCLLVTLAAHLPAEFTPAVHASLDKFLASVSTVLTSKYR
Chain of UniProt P69905 (P68871 2-147, chain 2 of 2, further chain): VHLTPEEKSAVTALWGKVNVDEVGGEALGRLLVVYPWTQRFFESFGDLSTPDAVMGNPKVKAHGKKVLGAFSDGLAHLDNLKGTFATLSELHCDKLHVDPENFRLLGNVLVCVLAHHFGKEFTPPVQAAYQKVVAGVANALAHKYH

Substance: IsdH N2 (from UniProt Q2FXJ2)
- Kd: 7.5 µM
